# Measured values as given in patent publication US20240261333A1 (published 2024).
# T1: SPARC (human, UniProt P09486 18-303)
# T1 construct: also called NP_001296372.1 (+1)
# T1 sequence (looked up): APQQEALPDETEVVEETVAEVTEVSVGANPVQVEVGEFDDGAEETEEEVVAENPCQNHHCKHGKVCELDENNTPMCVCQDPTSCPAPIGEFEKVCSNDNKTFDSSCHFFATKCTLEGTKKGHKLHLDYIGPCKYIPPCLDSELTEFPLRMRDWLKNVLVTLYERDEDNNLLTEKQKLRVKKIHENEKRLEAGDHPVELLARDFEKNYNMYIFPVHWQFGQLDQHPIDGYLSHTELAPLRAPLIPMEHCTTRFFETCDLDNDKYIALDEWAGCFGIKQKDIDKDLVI
# T2: RBM14 (human, UniProt Q96PK6 1-669)
# T2 construct: also called XP_006319.1
# T2 sequence (looked up): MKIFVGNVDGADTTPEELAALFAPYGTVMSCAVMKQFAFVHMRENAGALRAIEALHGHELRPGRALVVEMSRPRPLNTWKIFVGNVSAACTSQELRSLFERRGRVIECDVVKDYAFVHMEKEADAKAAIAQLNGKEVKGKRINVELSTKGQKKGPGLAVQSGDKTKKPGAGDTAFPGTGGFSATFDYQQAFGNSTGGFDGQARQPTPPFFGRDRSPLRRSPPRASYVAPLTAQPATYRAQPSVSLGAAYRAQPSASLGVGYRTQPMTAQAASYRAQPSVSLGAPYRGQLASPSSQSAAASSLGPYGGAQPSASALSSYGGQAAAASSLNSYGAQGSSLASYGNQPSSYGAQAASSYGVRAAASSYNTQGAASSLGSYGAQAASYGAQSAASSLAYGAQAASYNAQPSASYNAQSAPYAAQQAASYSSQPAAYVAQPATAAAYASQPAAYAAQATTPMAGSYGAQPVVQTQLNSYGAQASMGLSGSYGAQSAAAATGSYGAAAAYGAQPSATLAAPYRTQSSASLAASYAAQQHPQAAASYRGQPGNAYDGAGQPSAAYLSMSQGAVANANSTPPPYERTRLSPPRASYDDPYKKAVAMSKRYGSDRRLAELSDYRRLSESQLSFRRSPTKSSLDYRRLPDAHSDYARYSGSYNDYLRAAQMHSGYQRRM
# T3: SRSF6 (human, UniProt Q13247 1-344)
# T3 construct: also called NP_006266.2
# T3 sequence (looked up): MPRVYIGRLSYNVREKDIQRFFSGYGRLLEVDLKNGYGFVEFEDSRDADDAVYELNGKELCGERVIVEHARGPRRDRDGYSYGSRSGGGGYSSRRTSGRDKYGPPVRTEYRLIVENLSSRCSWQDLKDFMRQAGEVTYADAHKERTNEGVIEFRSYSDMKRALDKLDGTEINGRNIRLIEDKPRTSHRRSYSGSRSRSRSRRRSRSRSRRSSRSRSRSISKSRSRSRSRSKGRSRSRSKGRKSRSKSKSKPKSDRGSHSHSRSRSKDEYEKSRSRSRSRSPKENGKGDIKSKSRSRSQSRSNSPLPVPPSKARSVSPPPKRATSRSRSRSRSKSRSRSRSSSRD
# B1: N-terminal FLAG tagged B3GNT2 (enzyme, human, UniProt Q9NY97 1-397, looked up)
# chain: MSVGRRRIKLLGILMMANVFIYFIMEVSKSSSQEKNGKGEVIIPKEKFWKISTPPEAYWNREQEKLNRQYNPILSMLTNQTGEAGRLSNISHLNYCEPDLRVTSVVTGFNNLPDRFKDFLLYLRCRNYSLLIDQPDKCAKKPFLLLAIKSLTPHFARRQAIRESWGQESNAGNQTVVRVFLLGQTPPEDNHPDLSDMLKFESEKHQDILMWNYRDTFFNLSLKEVLFLRWVSTSCPDTEFVFKGDDDVFVNTHHILNYLNSLSKTKAKDLFIGDVIHNAGPHRDKKLKYYIPEVVYSGLYPPYAGGGGFLYSGHLALRLYHITDQVHLYPIDDVYTGMCLQKLGLVPEKHKGFRTFDIEEKNKNNICSYVDLMLVHSRKPQEMIDIWSQLQSAHLKC
# notes: FLAG-tagged ORF overexpressed in cells; pulled down from lysate with mouse anti-FLAG; also called N-FLAG B3GNT2; N-term FLAG; not shown: N-terminal FLAG tag
# B2: N-terminal FLAG tagged B3GNT2 (enzyme, human, UniProt Q9NY97 1-397, looked up)
# chain: MSVGRRRIKLLGILMMANVFIYFIMEVSKSSSQEKNGKGEVIIPKEKFWKISTPPEAYWNREQEKLNRQYNPILSMLTNQTGEAGRLSNISHLNYCEPDLRVTSVVTGFNNLPDRFKDFLLYLRCRNYSLLIDQPDKCAKKPFLLLAIKSLTPHFARRQAIRESWGQESNAGNQTVVRVFLLGQTPPEDNHPDLSDMLKFESEKHQDILMWNYRDTFFNLSLKEVLFLRWVSTSCPDTEFVFKGDDDVFVNTHHILNYLNSLSKTKAKDLFIGDVIHNAGPHRDKKLKYYIPEVVYSGLYPPYAGGGGFLYSGHLALRLYHITDQVHLYPIDDVYTGMCLQKLGLVPEKHKGFRTFDIEEKNKNNICSYVDLMLVHSRKPQEMIDIWSQLQSAHLKC
# notes: FLAG-tagged ORF overexpressed in A375 cells; pulled down from the lysate with mouse anti-FLAG; also called N-FLAG B3GNT2; N-term FLAG; not shown: N-terminal FLAG tag
# What was measured:
# Assay in all cases: co-IP with anti-FLAG, N-FLAG B3GNT2, mass spectrometry
# PKM = molecular target: T4, PKM (human, UniProt P14618 2-531, limits assumed)
# T4 construct: also called NP_001193725.1 (+3)
# T4 sequence (P14618 2-531 limits assumed): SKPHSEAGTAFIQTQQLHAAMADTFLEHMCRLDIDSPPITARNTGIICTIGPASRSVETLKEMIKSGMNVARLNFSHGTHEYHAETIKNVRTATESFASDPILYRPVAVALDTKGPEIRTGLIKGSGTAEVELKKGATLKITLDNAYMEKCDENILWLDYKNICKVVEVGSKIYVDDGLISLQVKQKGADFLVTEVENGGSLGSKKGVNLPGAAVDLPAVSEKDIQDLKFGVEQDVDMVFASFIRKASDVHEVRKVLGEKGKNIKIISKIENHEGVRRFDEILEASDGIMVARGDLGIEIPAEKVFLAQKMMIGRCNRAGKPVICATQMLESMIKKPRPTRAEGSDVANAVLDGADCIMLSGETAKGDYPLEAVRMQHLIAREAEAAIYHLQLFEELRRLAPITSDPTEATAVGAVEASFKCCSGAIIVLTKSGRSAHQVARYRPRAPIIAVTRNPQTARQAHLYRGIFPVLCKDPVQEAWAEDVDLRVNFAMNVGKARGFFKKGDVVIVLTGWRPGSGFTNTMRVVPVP
# SPARC = molecular target: T1, SPARC
# RBM14 = molecular target: T2, RBM14
# SRSF6 = molecular target: T3, SRSF6
# RPS24 = molecular target: T5, RPS24 (human, UniProt P62847-4 1-289, limits assumed)
# T5 construct: also called NP_001135757.1
# T5 sequence (P62847 other isoform, or with tags, fused parts or gaps limits assumed): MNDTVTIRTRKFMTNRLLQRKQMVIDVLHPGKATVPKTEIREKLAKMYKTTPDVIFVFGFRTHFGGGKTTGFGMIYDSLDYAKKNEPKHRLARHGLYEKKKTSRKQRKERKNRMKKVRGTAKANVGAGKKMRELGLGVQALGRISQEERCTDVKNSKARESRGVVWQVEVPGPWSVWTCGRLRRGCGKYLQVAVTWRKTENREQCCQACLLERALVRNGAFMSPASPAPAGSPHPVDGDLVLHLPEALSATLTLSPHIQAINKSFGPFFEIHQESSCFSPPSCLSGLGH
# LAMC1 = molecular target: T6, LAMC1 (human, UniProt P11047 34-1609)
# T6 construct: also called NP_002284.3
# T6 sequence (P11047 34-1609 limits assumed): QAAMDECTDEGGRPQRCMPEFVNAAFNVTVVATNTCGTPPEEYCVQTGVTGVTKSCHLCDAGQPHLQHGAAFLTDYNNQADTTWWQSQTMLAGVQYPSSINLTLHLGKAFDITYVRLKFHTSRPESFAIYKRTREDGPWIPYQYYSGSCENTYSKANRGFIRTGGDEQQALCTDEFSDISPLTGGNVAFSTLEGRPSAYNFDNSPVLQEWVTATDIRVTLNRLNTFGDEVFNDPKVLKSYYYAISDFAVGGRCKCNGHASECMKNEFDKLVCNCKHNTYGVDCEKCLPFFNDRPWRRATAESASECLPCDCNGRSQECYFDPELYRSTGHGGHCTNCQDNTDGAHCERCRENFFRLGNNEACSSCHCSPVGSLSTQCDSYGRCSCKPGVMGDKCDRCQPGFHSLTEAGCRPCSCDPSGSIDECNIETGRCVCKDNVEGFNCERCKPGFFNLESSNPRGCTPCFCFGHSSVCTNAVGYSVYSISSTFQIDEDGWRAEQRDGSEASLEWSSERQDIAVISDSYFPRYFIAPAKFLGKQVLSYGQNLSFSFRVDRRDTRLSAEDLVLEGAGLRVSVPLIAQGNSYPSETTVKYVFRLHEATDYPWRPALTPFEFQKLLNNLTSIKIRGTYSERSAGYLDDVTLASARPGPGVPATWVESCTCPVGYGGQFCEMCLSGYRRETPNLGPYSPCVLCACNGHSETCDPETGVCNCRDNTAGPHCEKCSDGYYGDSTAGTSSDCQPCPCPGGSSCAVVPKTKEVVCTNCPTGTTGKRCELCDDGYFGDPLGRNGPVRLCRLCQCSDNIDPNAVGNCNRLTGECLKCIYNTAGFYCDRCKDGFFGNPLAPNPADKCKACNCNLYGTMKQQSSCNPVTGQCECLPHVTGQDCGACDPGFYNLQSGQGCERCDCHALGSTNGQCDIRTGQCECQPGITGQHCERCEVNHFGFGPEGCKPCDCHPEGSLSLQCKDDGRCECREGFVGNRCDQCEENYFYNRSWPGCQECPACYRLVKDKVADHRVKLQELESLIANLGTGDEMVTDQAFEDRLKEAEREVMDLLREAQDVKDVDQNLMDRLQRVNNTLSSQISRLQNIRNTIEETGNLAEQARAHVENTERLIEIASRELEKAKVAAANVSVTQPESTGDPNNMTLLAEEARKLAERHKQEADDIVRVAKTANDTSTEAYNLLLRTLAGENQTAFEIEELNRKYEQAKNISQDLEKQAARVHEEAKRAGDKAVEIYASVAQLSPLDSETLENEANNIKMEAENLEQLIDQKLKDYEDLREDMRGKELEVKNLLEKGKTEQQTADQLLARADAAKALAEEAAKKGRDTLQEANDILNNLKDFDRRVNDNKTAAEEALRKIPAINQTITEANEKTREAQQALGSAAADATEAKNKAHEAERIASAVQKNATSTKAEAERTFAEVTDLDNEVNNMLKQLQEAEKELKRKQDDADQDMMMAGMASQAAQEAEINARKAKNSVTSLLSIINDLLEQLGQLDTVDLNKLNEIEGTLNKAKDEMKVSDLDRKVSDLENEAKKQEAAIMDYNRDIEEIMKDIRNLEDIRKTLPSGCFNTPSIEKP
Binder,co-IP mass spectrometry count (PKM),"co-IP/MS count, N-term FLAG (SPARC)","co-IP/MS count, N-term FLAG (RBM14)","co-IP/MS count, N-term FLAG (SRSF6)","co-IP/MS count, N-term FLAG (RPS24)","co-IP/MS count, N-term FLAG (LAMC1)"
B1,3,–,–,–,–,–
B2,–,0,3,6,0,0
